Experiments:
[1] = target: T1, KdpE (Staphylococcus aureus) (UniProt Q2FWH6); experiment: EMSA; conditions: EMSA 25 C, 20 min, 20 ul, 1x binding buffer, 2.5% glycerol, 50 ng/ml poly(dI-dC), 0.05% NP-40; CymR/KdpE buffer: 20 mM Tris-HCl pH 7.5, 10 mM MgCl2, 100 mM …
T1 sequence: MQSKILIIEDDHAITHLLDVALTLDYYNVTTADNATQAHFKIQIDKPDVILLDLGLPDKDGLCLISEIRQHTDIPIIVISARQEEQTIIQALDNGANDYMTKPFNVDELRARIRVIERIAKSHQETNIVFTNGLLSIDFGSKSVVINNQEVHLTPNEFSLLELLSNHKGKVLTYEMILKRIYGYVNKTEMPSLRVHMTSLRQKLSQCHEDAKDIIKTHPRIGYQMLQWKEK

[2] = target: T2, LacR (Staphylococcus aureus) (UniProt Q5HE08); experiment: EMSA; conditions: EMSA 25 C, 20 min, 20 ul, 1x binding buffer, 2.5% glycerol, 50 ng/ml poly(dI-dC), 0.05% NP-40; CymR/KdpE buffer: 20 mM Tris-HCl pH 7.5, 10 mM MgCl2, 100 mM …
T2 sequence: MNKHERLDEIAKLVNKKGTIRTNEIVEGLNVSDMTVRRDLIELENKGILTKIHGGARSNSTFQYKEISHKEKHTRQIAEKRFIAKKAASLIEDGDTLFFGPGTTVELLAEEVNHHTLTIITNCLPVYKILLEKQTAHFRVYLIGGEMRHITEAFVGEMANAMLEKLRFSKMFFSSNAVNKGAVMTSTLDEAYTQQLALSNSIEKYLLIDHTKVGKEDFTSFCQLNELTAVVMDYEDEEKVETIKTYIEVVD

| Sequence | binding [1] | binding [2] |
| --- | --- | --- |
| GACATAACCTTCACCTCGATAGCAATATCATAATATTCTTCACAATTAAATGCTATAAAATTTATTTCTGCATACACATCTTAATGATTTCTTAATAACTAAGTTTGAAAATTAATATTTCTCTCATAAACAAGTTGTTACGATGTTGTTGTGTTGTAAGGAGGTTATGGCAATGCTCATCGTTTTATTACTGGTAGTTATTGCATTAGTTTTGTATTTATTTTATGCCTTAATTCGTAGTGAAAAATTTTAGAAATATATTAAGTGAGGGTTATCATGG (double strand) [kdpFABC promoter] | binds | – |
| GTAATCCATTGTTACCTCCCGATTACAAATTTTGTTCTATCTACTATTTAGCAAAGTAATAATACATCATATCACATTAAATTAATTACTTATGTCTTATATTTAACACTTAATTTAGCGATTACGCAAATGAATGATTTTTCTAAATATTTTATTCTAACTTTATCCGGAAATATTTGTTATACGTATAACTTGGAGAATGACTACTTGAAATTTAATGACGTATACAACAAACACCAC (double strand) [sigS promoter] | binds | no binding |
